Experimental data: the supplement of paper PMC12764529
± gives the half width of the 95% confidence interval.

Assay: folding stability dG unfold from trypsin proteolysis; higher = more stable
Outline: (§1)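 How resistant each design was to proteolysis was captured as K50, inferred by Bayesian fitting of sequencing counts. Unfolding free energy was then derived relative to a sequence-predicted unfolded-state K50 and a shared folded-state K50, per protease or combined. Digestion used trypsin and chymotrypsin at 11 threefold-diluted concentrations plus a no-protease condition, on mini-proteins under 80 residues without cysteine in a PA-tagged cDNA display construct. Designs were kept only when AlphaFold2 dimer inter-PAE was above 15.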

Row | Sequence | folding stability dG unfold
1 | SAGGSKTITIELTTKDGYKFTITVTEKDDKVTANITFLDPTVTPEKIDETIATLEKLAKEAGKNLTISSAGG [r13_774_TrMRF] | 2.62 ± 0.11 kcal/mol
2 | SMKIKIEPLPDGSYRLVAEVPEDAEETENLFPLTGKPIVVKREKNKLVIEFDNPEEVELFAEALKKNIPLSA [r9_515_TrMRF] | 1.28 ± 0.032 kcal/mol
3 | SAGGSAGGLKPGEEWLILFRIDIEIEPMPPNMSPDMAKRFPNMYHIEVKIDILIIPAEDLKELFSAGGSAGG [r6_831_TrROS] | 3.17 ± 0.13 kcal/mol
4 | SAGGSAGGSAGVTIPDPGEEELRKALEAGREVRVAFPESGKVVLVEGPGPELGEEPEPAASAGGSAGGSAGG [r11_94_JUSTAS] | -0.619 ± 0.093 kcal/mol
5 | SAGGSAGGGMVKVTLRITYYNSTGPYTSDRVFELPPDEVEALIEAIPPPPDATPEVEVEREPLGSAGGSAGG [r6_428_JUSTAS] | 0.8 ± 0.042 kcal/mol
6 | SAGGEETVTLELELEFEPGMTEEELEEKARELAEALAEELGLEVEVEVRVERDEDGRVRVTVEVRVKSAGGS [r16_279_TrROS_Hall] | 2.94 ± 0.076 kcal/mol
7 | STLTLEELKERFPELSEEELEALAERLAALPAPVTVTVEVRPAPPPPVEERELSEEELLEARLRPGERVESA [r9_1024_TrROS_Hall] | 0.624 ± 0.06 kcal/mol
8 | SAGGSAGGSAGPEILIVVESEEEAKKLAEELARALREAGLPEDAKIKIKIIVLPKEELEKSAGGSAGGSAGG [r17_180_TrROS_Hall] | 1.76 ± 0.062 kcal/mol
9 | SEPVPVKIEISTSVDSNGNPSVTITVYNEEKVYTNPLNGATILSVDPNKQYIVIENPALGTKLTLSYTLISA [r9_1186_JUSTAS] | 2.07 ± 0.086 kcal/mol
10 | SAGGSAGGSAGMTLEELERLGYKVEVFRHPDTPEVYVRVEYPVPPGGLKRAVIPLKDVKLSAGGSAGGSAGG [r17_311_TrMRF] | -1.35 ± 0.52 kcal/mol
11 | SAGGSITSTTTLPDGTTVTTTVLPSGVTVVTTSTLDPATGTVSTTTTTLPPSSATTTTTTTTVPPLTSAGGS [r16_230_JUSTAS] | 3.18 ± 0.12 kcal/mol
12 | SAGGSAGGSAGVIPLPGGEEVEYFPEKGEATVRLPDGTVYKVEITKAPDGSLSVTVTPAGSAGGSAGGSAGG [r11_331_JUSTAS] | 1.79 ± 0.052 kcal/mol
13 | SKKKKKKKKKKPKTVIIEIDVKEMSEEEIREILKKLPKNVKRVIIIAKSEEEKEKLKELLKEAGYEVEIVSA [r9_919_TrROS_Hall] | 1.96 ± 0.18 kcal/mol
14 | SAGGSAGGSAGKETITITLVVTDENGEKYLIRVEAKIDPKTNKITITKIEIIRLDDLKKLSAGGSAGGSAGG [r11_777_TrROS_Hall] | 1.12 ± 0.093 kcal/mol
15 | SAGGSAGGVVPLEELAKRLGWSPEFLRELEEKGIKVELERVTPDKVVVTLTEPGTGETKTIELPSAGGSAGG [r6_969_JUSTAS] | 3.19 ± 0.24 kcal/mol
16 | SAGGLSLEELADELAQENGWEITEAEPIEFTPNTIRFEVTVRMPDGKRRTIEIEIEIPPPKPPDQPKSAGGS [r8_309_TrROS] | 1.15 ± 0.067 kcal/mol
17 | SAGGSAGGSASAEEIAAKIEALFPVKVTVVREEPTPLGRPEVVIEVDAVGVPEELLEEVLKSAGGSAGGSAG [r3_40_JUSTAS] | 0.68 ± 0.04 kcal/mol
18 | SAGGSAGGSMSPSESVTLTVVVEEITPGTPKVLLPEEVKEKYPNFEVQVKVEGKPATVTITRPSAGGSAGGS [r12_900_JUSTAS] | 0.321 ± 0.021 kcal/mol
19 | SAGGSAGMSTVTVPLTVELVDPNNGNLKKVIERPLTVPAELSLDEVKEIVREEAKKEGLTIAKILLSAGGSA [r15_195_JUSTAS] | -0.122 ± 0.21 kcal/mol
20 | NINPEFMEKIVNEIANRMNQQGWKIKKVDIEPYPNGMIDIKVNGREIEFPWPNGRWFRIKVEAKRVPPEQRS [r1_31_TrROS] | 1.93 ± 0.027 kcal/mol
21 | SAGGSMLTPDQVIELPDPNVTATITESEVLEEDPEHGTLLVKYLVVISKNGNPVEEERLLRVPKPVSAGGSA [r2_272_JUSTAS] | 0.205 ± 0.042 kcal/mol

Row | Sequence | folding stability dG unfold
22 | SAGDLAEYIAETLQDHFPNMEVEVEIDGVEDGYIVIDITIYFRDMKDNENKPRWVPWEIVIPPGEPLPSAGG [r19_8_TrROS] | 2.36 ± 0.14 kcal/mol
23 | SAGSLELPPGVSEVVYDPSSGVYSVRYPDGTLVQVDVLYEPDPFVDELHPVAFVSVYSPTSLLATAPLNSAG [r5_109_TrMRF] | 0.821 ± 0.019 kcal/mol
24 | SAGGSAGGSDVEVTVTLEYDEETGVLYVTAEVRDKETGRTVRVVVKFDLETNEWEVVAVEVLPSAGGSAGGS [r20_163_TrROS_Hall] | 2.92 ± 0.16 kcal/mol
25 | SAKEPVYLVRIRVEIYKDGKPVKELEIEVEVEEGETLEEVLERLREELEKKGYKIVKVEIEVRKLPPPESAG [r14_979_TrROS_Hall] | 3.35 ± 0.13 kcal/mol
26 | SAGGSAGGSAGKKIKLPKELKGKKIEVKEVEIEVEVNGKKYKFKAKIVKFDGKIIAIELESAGGSAGGSAGG [r11_21_TrROS_Hall] | 1.36 ± 0.069 kcal/mol
27 | SAGGSAGGKTISIPGSIEEIQEKLGGPIDEVEHNKPGSGSYKPKNGKPITIHFDSPEDILDFFKSAGGSAGG [r6_19_TrROS] | 0.318 ± 0.032 kcal/mol
28 | SAGGSAGGSAGGMIAVLTYKDGTVRDFGPTASLEEILSIPADEIVRIEVRPVLPELGDLLSAGGSAGGSAGG [r7_190_TrMRF] | 0.59 ± 0.018 kcal/mol
29 | SAGGAKITVDDNKITIELPLPNGKPAGSINEPLPDGSSRILVKFPDFVLHLEITPEGIKIASIDNNKDSAGG [r13_619_TrMRF] | 1.27 ± 0.068 kcal/mol
30 | SAGGMTLTLIVPSKEEAERLAEALRALLPPGAKLEITVEEVTLKEDLPPDLPEVKEKKYLVVTIRLDSAGGS [r16_795_TrROS_Hall] | 3.03 ± 0.14 kcal/mol
31 | SAGGSAGGSAGEKTIKIKVKDKNGKTKTITLKIKNAKFKPGQKIEIVKVNKNGSLEIKLKSAGGSAGGSAGG [r11_733_TrROS_Hall] | 0.678 ± 0.059 kcal/mol
32 | SFKLPPGQEIKVKIFILFVDPGDGRMYFIKIEYEITIKPDDDGNLDLDIEPTNIEVVGPMPADEAKEFFKSA [r9_423_TrROS] | 2.47 ± 0.086 kcal/mol
33 | SAGGSAGGPMSAEELARFLANEFHKKHGMPPGHRVKIPVKWRDPEDGNEQEVTIEIPIRMPKGDSAGGSAGG [r6_799_TrROS] | 0.32 ± 0.17 kcal/mol
34 | SAGMSEEERKAAEEASKPPVKVETLTVTVLVEVDGKLYLVRATITRVVLPDGSIVTELKIEIIPLEDLSAGG [r19_11_TrROS_Hall] | 3.05 ± 0.21 kcal/mol
35 | DYKIKIPVARFPDGYWYIRAEIEDPDGETHEYEYPIPMPPGDTFDIDLPEDEPYKIKKIWIYHNGKPQPITS [r1_70_TrROS] | 0.922 ± 0.11 kcal/mol
36 | SGPGEEEVAKRAAAEAAPTPDVREVTEEVEIVVPGTGEKVVVPVTALRLPDGTIVPLPEEEIRAIAEKLLSA [r9_1056_JUSTAS] | 0.341 ± 0.098 kcal/mol
37 | SAGGEKPKEVEIEEVVVKNEETGEEVRFFRIRDKETDEWYVLAVVRNKDGEEKVVKMSAEEAKKLLESAGGS [r8_421_TrROS_Hall] | 3.13 ± 0.065 kcal/mol
38 | SAGMMLIEVEKNGEPVEVAEVKDDEITITLPKEKVRIRIVNADTGEEVEAEATVEDGTITIKLPPGVKLSAG [r5_469_TrROS_Hall] | 0.669 ± 0.077 kcal/mol
39 | SAGGMKIVEITEEVPPGAVVRITFEDGSKREIKIPNVAELKGKKITLELPGLKVVKIEVVPAKEGEEVSAGG [r13_587_TrROS_Hall] | 2.3 ± 0.15 kcal/mol
40 | SAGGIKIQDPDDGEWIEFPLPIRNPGDGKPYPFKVEIPVRRDPENGRPYFYIEIEFPGNGRKMTFPLRSAGG [r13_262_TrROS] | 0.518 ± 0.06 kcal/mol
41 | SPSTTVETTVTIPYTYRLPDGTVLEYNLTISVTASLTNGGISTGDLKSAIDTALAAANIPPGPPDLPLLLRS [r1_175_JUSTAS] | 0.738 ± 0.13 kcal/mol
42 | SAKKKKVKKKEIKVTLKLKLPGAKIKSVKVEKKGDKLVITVEIELENGEKLKLTAVFDKDGKIVKIELESAG [r14_719_TrROS_Hall] | 1.11 ± 0.11 kcal/mol

Assay: folding stability dG unfold (combined trypsin and chymotrypsin); higher = more stable
Outline: as §1

Row | Sequence | folding stability dG unfold
43 | SAGGSKTITIELTTKDGYKFTITVTEKDDKVTANITFLDPTVTPEKIDETIATLEKLAKEAGKNLTISSAGG [r13_774_TrMRF] | 3.36 ± 0.095 kcal/mol
44 | SMKIKIEPLPDGSYRLVAEVPEDAEETENLFPLTGKPIVVKREKNKLVIEFDNPEEVELFAEALKKNIPLSA [r9_515_TrMRF] | 1.47 ± 0.12 kcal/mol
45 | SAGGSAGGLKPGEEWLILFRIDIEIEPMPPNMSPDMAKRFPNMYHIEVKIDILIIPAEDLKELFSAGGSAGG [r6_831_TrROS] | 3.51 ± 0.13 kcal/mol
46 | SAGGSAGGSAGVTIPDPGEEELRKALEAGREVRVAFPESGKVVLVEGPGPELGEEPEPAASAGGSAGGSAGG [r11_94_JUSTAS] | 0.275 ± 0.075 kcal/mol
47 | SAGGSAGGGMVKVTLRITYYNSTGPYTSDRVFELPPDEVEALIEAIPPPPDATPEVEVEREPLGSAGGSAGG [r6_428_JUSTAS] | 1.22 ± 0.14 kcal/mol
48 | SAGGEETVTLELELEFEPGMTEEELEEKARELAEALAEELGLEVEVEVRVERDEDGRVRVTVEVRVKSAGGS [r16_279_TrROS_Hall] | 2.56 ± 0.086 kcal/mol
49 | STLTLEELKERFPELSEEELEALAERLAALPAPVTVTVEVRPAPPPPVEERELSEEELLEARLRPGERVESA [r9_1024_TrROS_Hall] | 1.51 ± 0.098 kcal/mol
50 | SAGGSAGGSAGPEILIVVESEEEAKKLAEELARALREAGLPEDAKIKIKIIVLPKEELEKSAGGSAGGSAGG [r17_180_TrROS_Hall] | 2.12 ± 0.066 kcal/mol
51 | SEPVPVKIEISTSVDSNGNPSVTITVYNEEKVYTNPLNGATILSVDPNKQYIVIENPALGTKLTLSYTLISA [r9_1186_JUSTAS] | 2.49 ± 0.093 kcal/mol
52 | SAGGSAGGSAGMTLEELERLGYKVEVFRHPDTPEVYVRVEYPVPPGGLKRAVIPLKDVKLSAGGSAGGSAGG [r17_311_TrMRF] | 0.499 ± 0.039 kcal/mol
53 | SAGGSITSTTTLPDGTTVTTTVLPSGVTVVTTSTLDPATGTVSTTTTTLPPSSATTTTTTTTVPPLTSAGGS [r16_230_JUSTAS] | 2.58 ± 0.046 kcal/mol
54 | SAGGSAGGSAGVIPLPGGEEVEYFPEKGEATVRLPDGTVYKVEITKAPDGSLSVTVTPAGSAGGSAGGSAGG [r11_331_JUSTAS] | 1.45 ± 0.052 kcal/mol
55 | SKKKKKKKKKKPKTVIIEIDVKEMSEEEIREILKKLPKNVKRVIIIAKSEEEKEKLKELLKEAGYEVEIVSA [r9_919_TrROS_Hall] | 1.76 ± 0.25 kcal/mol
56 | SAGGSAGGSAGKETITITLVVTDENGEKYLIRVEAKIDPKTNKITITKIEIIRLDDLKKLSAGGSAGGSAGG [r11_777_TrROS_Hall] | 1.75 ± 0.41 kcal/mol
57 | SAGGSAGGVVPLEELAKRLGWSPEFLRELEEKGIKVELERVTPDKVVVTLTEPGTGETKTIELPSAGGSAGG [r6_969_JUSTAS] | 3.08 ± 0.17 kcal/mol
58 | SAGGLSLEELADELAQENGWEITEAEPIEFTPNTIRFEVTVRMPDGKRRTIEIEIEIPPPKPPDQPKSAGGS [r8_309_TrROS] | 1.39 ± 0.13 kcal/mol
59 | SAGGSAGGSASAEEIAAKIEALFPVKVTVVREEPTPLGRPEVVIEVDAVGVPEELLEEVLKSAGGSAGGSAG [r3_40_JUSTAS] | 0.559 ± 0.064 kcal/mol
60 | SAGGSAGGSMSPSESVTLTVVVEEITPGTPKVLLPEEVKEKYPNFEVQVKVEGKPATVTITRPSAGGSAGGS [r12_900_JUSTAS] | 0.385 ± 0.077 kcal/mol
61 | SAGGSAGMSTVTVPLTVELVDPNNGNLKKVIERPLTVPAELSLDEVKEIVREEAKKEGLTIAKILLSAGGSA [r15_195_JUSTAS] | 0.00724 ± 0.13 kcal/mol
62 | NINPEFMEKIVNEIANRMNQQGWKIKKVDIEPYPNGMIDIKVNGREIEFPWPNGRWFRIKVEAKRVPPEQRS [r1_31_TrROS] | 2.41 ± 0.076 kcal/mol
63 | SAGGSMLTPDQVIELPDPNVTATITESEVLEEDPEHGTLLVKYLVVISKNGNPVEEERLLRVPKPVSAGGSA [r2_272_JUSTAS] | -0.01 ± 0.079 kcal/mol
